The nature of series [1]: Plasma concentration of adalimumab or ustekinumab in implanted Nude mice (human IgG Fc ELISA). The format is in vivo, mouse. Particulars: for day plateau was reached: nPET-PBT/PET/nPU cell chamber device; for average plasma concentration plateau: nPET-PBT/PET/nPU cell chamber device with antibody-expressing ARPE19 cells, subcutaneous. How it is done: To assess the ability to deliver biologics into the blood flow and the applicability of the devices to other biologics, secretion of adalimumab or ustekinumab from the nPET-PBT/PET/nPU cell chamber device described in Example 10 was assessed in vivo. The nPET-PBT/PET/nPU cell chamber device was seeded with ARPE19 cells stably expressing adalimumab or ustekinumab (see also Example 8) and subcutaneously implanted in Nude mice. Mice were assessed by blood collection over the course of >100 days to measure the plasma concentration of each antibody over time. Human IgG concentration in plasma was tested by an ELISA assay which detected the human IgG Fc region. […] (Day 1-Day 60: N=5, Day 61-Day 81: N=4, Day 82-92: N=3, Day 93-Day 108: N=2). Similarly, the average ustekinumab plasma concentration reached a plateau of approximately 60-110 μg/mL around Day 20 and maintained a steady-state over 80 days (N=5).
In general terms: In an ELISA, binding on a coated surface is turned into a signal by an enzyme label.

In the next series the target is human TNFα (Homo sapiens, UniProt P01375). Put plainly: Neutralization of human TNFα activity in L-929 cells (CCK-8 viability). Conditions: antibody secreted by ARPE-19 cells in culture medium, human TNFα 1 ng/mL. The format is cell-based. How it is done: Adalimumab is an anti-TNFα antibody. To assay for adalimumab activity in the cell culture medium of adalimumab/ARPE-19 cells, L-929 cells were seeded into a 96 well cell culture plate at the density of 5,000 cells/well in DMEM supplemented with 10% FBS. After 20-hour incubation, the cells were sensitized with Actinomycin D (2 μg/mL) for two hours. Then the cells were incubated with culture medium comprising antibodies secreted by the ARPE-19 cells in the presence of human TNFα (1 ng/mL). After another 20-hour incubation the cells were evaluated for cell viability by a CCK-8 assay to test for neutralization of human TNFα activity.
Sequence of human TNFα (P01375 77-233 limits assumed): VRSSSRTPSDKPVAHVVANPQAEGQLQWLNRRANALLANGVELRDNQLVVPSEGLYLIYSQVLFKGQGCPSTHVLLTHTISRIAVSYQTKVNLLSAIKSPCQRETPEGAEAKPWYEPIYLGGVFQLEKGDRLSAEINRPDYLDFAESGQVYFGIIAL

Series [2] deals with vedolizumab/Luc-ARPE19 cells. As to the kind of experiment: Cell growth and vedolizumab secretion on tacrolimus-loaded nPET-PBT. Type of series: cell-based, human. Particulars: 200,000 cells/condition, three days, fluorescence imaging. How it is done: Cells were grown on tacrolimus-loaded nPET-PBT discs over three days, after which the surfaces of the nPET-PBT material were visually inspected by fluorescence imaging. […] Cells were further assessed three weeks post-seeding.

The nature of series [3]: HPLC analysis of tacrolimus solvent-extracted from electrospun nPET-PBT. Conditions: HPLC after solvent extraction. Type of series: physicochemical. On the procedure: To reduce inflammation due to implantation trauma, the cell scaffold device can be loaded with tacrolimus (FK506). To assess cell seeding and biomolecule secretion on tacrolimus-treated materials, electrospun nPET-PBT was loaded with tacrolimus by dissolving 0% tacrolimus, 2% tacrolimus, or 4% tacrolimus to the polymer solution prior to electrospinning.
Incorporation of tacrolimus into nPET-PBT was assessed by solvent extracting the tacrolimus from the electrospun materials. The solvent extracted solution was then analyzed by high performance liquid chromatography (HPLC).

For ustekinumab: anti-IL-12/IL-23 antibody, in series [1], the “day plateau was reached” value was roughly 20 days and the “average plasma concentration plateau” value was 60 to 110 µg/mL.

Consider adalimumab, for which, in series [1], the “day plateau was reached” value was roughly 25 days and the “average plasma concentration plateau” value was in the range of 50 to 100 µg/mL. Besides, on human TNFα, the TNFα neutralizing activity entry is “retained TNFα neutralizing activity”.

`C=CC[C@@H]1/C=C(\C)C[C@H](C)C[C@H](OC)[C@H]2O[C@@](O)(C(=O)C(=O)N3CCCC[C@H]3C(=O)O[C@H](/C(C)=C/[C@@H]3CC[C@@H](O)[C@H](OC)C3)[C@H](C)[C@@H](O)CC1=O)[C@H](C)C[C@@H]2OC` [tacrolimus]: in series [2], the “effect on cell proliferation or growth” value is recorded as “no detectable effect on cell proliferation or growth”. The “drug degradation following loading onto electrospun nPET-PBT” value in series [3] was “no drug degradation”.

These data come from US20230310712A1, “IMPLANTABLE CELL CHAMBER DEVICE AND USES THEREOF” (Takeda Pharmaceutical Company Limited, priority 2020, published 2023).
